The data set concerns the molecule itself. Nature of the data set: SEC; Superdex 200 10/300 GL in crosslinking buffer (0.1 M potassium phosphate, 5 mM EDTA, 0.150 M NaCl, pH 6.5-7.0), 0.75 ml/min; mutant reduced with TCEP before loading; fractions followed by A280 and catalytic activity; starting solution of low purity. For orientation: Size exclusion chromatography separates by hydrodynamic size, large species first.

One protein from paper PMC6063399, “Thiol-maleimide poly(ethylene glycol) crosslinking of L-asparaginase subunits at recombinant cysteine residues introduced by mutagenesis” (PLoS ONE, 2018) can be followed below.

B1: L-asparaginase mutant A38C-T263C (enzyme, E. coli, UniProt P00805 23-348, looked up)
chain: LPNITILATGGTIAGGGDSATKSNYTVGKVGVENLVNCVPQLKDIANVKGEQVVNIGSQDMNDNVWLTLAKKINTDCDKTDGFVITHGTDTMEETAYFLDLTVKCDKPVVMVGAMRPSTSMSADGPFNLYNAVVTAADKASANRGVLVVMNDTVLDGRDVTKTNTTDVATFKSVNYGPLGYIHNGKIDYQRTPARKHTSDTPFDVSKLNELPKVGIVYNYANASDLPAKALVDAGYDGIVSAGVGNGNLYKSVFDTLATAAKCGTAVVRSSRVPTGATTQDAEVDDAKYGFVASGTLNPQKARVLLQLALTQTKDPQQIQQIFNQY
notes: L-asparaginase II of E. coli (ansB), expressed with its natural signal peptide, which was excised; In the cross-linking experiments the two introduced cysteines were reacted with Bi-MAL-PEG (2000 or 5000 g/mol) after reduction with TCEP; also called mutant L-asparaginase; precursor mutant
Turning to B1, the binding result is listed as “binds”.
